Assay results as given in the supplement of paper PMC10567573.

B1: MAGEA6 (parent)
chain: KISGGPRISYPLLHEWALREGEE
B2: SLC35F2 (parent)
chain: SFMPLVIKVTSATSVNLGILTADL

Variants of: B1
Assay: protein stability index of a GFP-peptide fusion (GPS, HEK-293T) (PSI 1-6); higher = more stable
Details: c terminus: native
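Note: lentivirally expressed fusions sorted by FACS into six bins by GFP to DsRed ratio, PSI derived from sequencing read proportions per bin multiplied by bin number.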

Protein stability index, by site and new letter:
Y10: Q 3.78; K 3.2; L 3.04; H 2.83
I2: W 2.41; P 3.29; D 4; C 2.55
L13: W 3.38; M 1.77; Q 2.27; N 2.95; Y 1.19
H14: V 3.6; S 3.4; P 3.11
P6: G 1.91; C 2.05; A 2.25; N 3.51; I 3.5; R 3.64; S 2.73; T 2.8; K 1.55
S3: W 2.02; M 2.63; T 1.81
G4: C 3.34; I 3.06; W 2.78; T 4.54; S 5.95; P 5.66; V 1.61
L18: T 2.04; W 2.78; I 2.98; Q 1.63; N 2.16; S 2.31; E 3.11; K 2.72
E20: K 3.74
W16: N 2.54; C 2.94; P 2.49; L 4.59; F 2.74; S 2.33; T 1.89; Y 4.84; H 2.26
R7: L 1.92; I 4.03; P 2.65; G 2.84
I8: C 2.79; P 2.24; Q 2.06; Y 2.6; A 1.95; G 3.28; M 2
P11: S 2.66; V 2.1; E 3.27; H 2.24; R 3.25; L 2.3; Q 2.63; M 2.61; I 2.41
E15: I 2.14; N 2.31; G 3.53; K 3.16
K1: W 2.14; F 1.67; Q 2.35; D 3.3; N 2.62
L12: T 2.23; G 5.59; A 4.05; F 3.78; H 2.3
S9: L 3.34; C 3.18; F 1.61
R19: F 2.64; A 2.07; C 2.87; K 2.08; P 2.18; H 3.42; L 3.32; T 3.74; E 2.29; G 2.67; N 1.43; D 2.96
A17: D 1.28; C 3.28; P 1.02; E 3.55; N 3.69
G5: Y 3.51; A 2.31; D 2.6; K 2.48; H 1.73; F 2.74; C 3.47; T 3.04

Variants of: B2
Assay: as above
Details: c terminus: a fixed tail appended

Protein stability index, by site and new letter:
T21: K 2.52; L 2.33; P 2.5; G 2.24; M 2.77; W 2.7; F 1.85; D 2.61; V 2.54; N 1.87; H 4.75; R 3.24; E 2.86; Y 3.83; S 3.64; Q 2.79; A 2.49; I 3.26
V15: L 3.01; G 2.91; Y 2.21; A 3.38; C 2.21; W 4.14; N 2.58; K 3.59; R 3.44; T 3.48; I 1.93; M 3.77; H 2.88; D 3.98; F 3.58; P 2.73; S 3.78
I19: K 2.68; Q 2.64; H 2.39; R 2.08; P 2.37; V 2.77; E 2.08; N 2.86; T 2; A 3; F 3.09; S 2.69; G 3.15; M 3.44; C 2.99; D 1.97; L 2.54; Y 2.38
D23: Y 3.03; E 4.12; P 2.65; G 3.96; H 3.1; A 2.74; N 3.05; F 2.91; W 2.49; L 3.79; K 1.8; V 3.83; T 3.29; Q 3.39; C 2.29; M 1.83; S 2.11; I 3.05
S14: L 2.15; F 2.94; W 2.61; R 2.42; M 2.72; A 2.47; N 3.45; P 2.44; C 3.32; Q 1.71; H 1.79
N16: M 3.88; G 2.93; H 2.74; K 3.43; E 2.55; L 3.94; A 2.18; R 3.2; W 2.82; C 3.4; V 4.07; Q 3.34; D 2.94; Y 3.46; F 3.69; T 3.43; I 4.17
L20: P 2.38; G 2.2; V 3.65; T 2.55; H 3.07; N 1.97; A 3.33; C 2.67; Q 3.08; S 2.8; W 3.1; E 2.87; Y 3.69; I 3.65; M 2.92; F 3.49; D 1.59; K 1.93
G18: H 3.1; K 2.9; W 3.32; D 3.2; T 3.29; E 2.91; Y 3.08; R 3.18; Q 4.06; I 3.72; C 3.82; M 2.55; A 2.54; V 2.17; N 3.27; P 2.47; L 3.54; S 3.19; F 3.03
T13: I 3.67; Q 2.25; S 2.59; A 3.02; E 2.6; G 2.38; R 3.63; K 2.16; W 2.75; H 4; D 3.02; C 3.16; L 2.94; F 2.53; P 3.09; M 2.34; N 2.55; Y 3.88; V 2.43
L24: T 2.24; A 3.11; F 3.22; Y 4.32; R 1.89; G 3.04; S 2.87; V 2.43; E 2.21; Q 2.79; C 3.76; W 1.78; H 3.57; K 2.4; D 1.55; M 3.01; N 3.27; P 3.07; I 3.14
A22: K 2.21; V 3.18; G 3.15; Q 2.86; I 4; P 3.07; D 2.67; C 4.09; L 2.58; M 3.85; F 2.92; N 2.95; R 2.35; S 2.88; Y 3.41; W 3.55; E 2.99; H 3.34; T 3.93
L17: N 2.99; I 2.77; Q 3.52; F 2.72; M 3.87; W 3.32; E 2.24; A 2.48; S 2.85; D 2.04; H 2.92; V 2.44; Y 2.6; G 2.9; R 2.5; P 2.74; K 3.17; T 2.56; C 3.14
A12: W 1.91; R 2.75; S 1.89; T 2.89; Y 1.73; Q 2.82; V 2.75
